Measured values: IntAct's records for PubMed 26483485

B1: Cell adhesion molecule CEACAM6 (Homo sapiens), P40199 (parent)
chain: MGPPSAPPCRLHVPWKEVLLTASLLTFWNPPTTAKLTIESTPFNVAEGKEVLLLAHNLPQNRIGYSWYKGERVDGNSLIVGYVIGTQQATPGPAYSGRETIYPNASLLIQNVTQNDTGFYTLQVIKSDLVNEEATGQFHVYPELPKPSISSNNSNPVEDKDAVAFTCEPEVQNTTYLWWVNGQSLPVSPRLQLSNGNMTLTLLSVKRNDAGSYECEIQNPASANRSDPVTLNVLYGPDVPTISPSKANYRPGENLNLSCHAASNPPAQYSWFINGTFQQSTQELFIPNITVNNSGSYMCQAHNSATGLNRTTVTMITVSGSAPVLSAVATVGITIGVLARVALI
B2: Cell adhesion molecule CEACAM8 (Homo sapiens), P31997 (parent)
chain: MGPISAPSCRWRIPWQGLLLTASLFTFWNPPTTAQLTIEAVPSNAAEGKEVLLLVHNLPQDPRGYNWYKGETVDANRRIIGYVISNQQITPGPAYSNRETIYPNASLLMRNVTRNDTGSYTLQVIKLNLMSEEVTGQFSVHPETPKPSISSNNSNPVEDKDAVAFTCEPETQNTTYLWWVNGQSLPVSPRLQLSNGNRTLTLLSVTRNDVGPYECEIQNPASANFSDPVTLNVLYGPDAPTISPSDTYYHAGVNLNLSCHAASNPPSQYSWSVNGTFQQYTQKLFIPNITTKNSGSYACHTTNSATGRNRTTVRMITVSDALVQGSSPGLSARATVSIMIGVLARVALI

Variants of: B1
Conditions: with ceam8_human CEACAM8, P31997

Variant | effect of a mutation on the interaction
L129A | disrupting interaction strength
I63A | disrupting interaction strength
Q123A | with no effect
L78A | with no effect

Variants of: B2
Conditions: with ceam6_human CEACAM6, P40199

Variant | effect of a mutation on the interaction
Q123A | with no effect
R77A | disrupting interaction strength
L129A | disrupting interaction strength
